From paper PMC8120272, “Heterologous Expression and Biochemical Characterization of the Human Zinc Transporter 1 (ZnT1) and Its Soluble C-Terminal Domain” (Frontiers in Chemistry, 2021)

Molecular target: the molecule itself
Assay: SEC-SAXS (small-angle X-ray scattering); in-line SEC-SAXS with sheath flow, SAXS-WAXS beamline of the Australian Synchrotron; molecular mass estimated from the Porod volume; conditions in Supplementary Table 3

B1: soluble C-terminal domain of human zinc transporter 1 (hZnT1-CTD) (domain or fragment, UniProt Q9Y6M5 342-507, looked up)
chain: ILLQTVPKQIDIRNLIKELRNVEGVEEVHELHVWQLAGSRIIATAHIKCEDPTSYMEVAKTIKDVFHNHGIHATTIQPEFASVGSKSSVVPCELACRTQCALKQCCGTLPQAPSGKDAEKTPAVSISCLELSNNLEKKPRRTKAENIPAVVIEIKNMPNKQPESSL
notes: human zinc transporter 1 (ZnT1, SLC30A1), soluble C-terminal domain, residues 342-507; Cloned into pET24a with a C-terminal His8-tag; no removal of the tag is described
stoichiometry N: 2
